Source: patent US20110250130A1 (AbbVie / Abbott, published 2011)

Columns and labels:
[1] = molecular target: T1, Recombinant Human TNF-α/TNFSF1A (human, UniProt P01375 77-233); assay: cell-based or functional assay
[2] = molecular target: T1, Recombinant Human TNF-α/TNFSF1A; assay: SPR (Biacore), antibody captured, TNF-α in solution
Procedure: The BIACORE assay (Biacore, Inc. Piscataway, N.J.) determines the affinity of antibodies with kinetic measurements of on-rate and off-rate constants. Binding of antibodies to a target antigen (for example, a purified recombinant target antigen) is determined by surface plasmon resonance-based measurements with a Biacore® 1000 or 3000 instrument (Biacore® AB, Uppsala, Sweden) using running HBS-EP (10 mM HEPES [pH 7.4], 150 mM NaCl, 3 mM EDTA, and 0.005% surfactant P20) at 25° C. All chemicals are obtained from Biacore® AB (Uppsala, Sweden) or otherwise from a different source as described in the text. For example, approximately 5000 RU of goat anti-mouse IgG, (Fcγ), fragment specific polyclonal antibody (Pierce Biotechnology Inc, Rockford, Ill., US) diluted in 10 mM sodium acetate (pH 4.5) is directly immobilized across a CM5 research grade biosensor chip using a standard amine coupling kit according to manufacturer's instructions and procedures at 25 μg/ml. Unreacted moieties on the biosensor surface are blocked with ethanolamine. Modified carboxymethyl dextran surface in flowcell 2 and 4 is used as a reaction surface. Unmodified carboxymethyl dextran without goat anti-mouse IgG in flow cell 1 and 3 is used as the reference surface. For kinetic analysis, rate equations derived from the 1:1 Langmuir binding model are fitted simultaneously to association and dissociation phases of all eight injections (using global fit analysis) with the use of Biaevaluation 4.0.1 software. Purified antibodies are diluted in HEPES-buffered saline for capture across goat anti-mouse IgG specific reaction surfaces. Antibodies to be captured as a ligand (25 μg/ml) are injected over reaction matrices at a flow rate of 5 μl/minute. The association and dissociation rate constants, kₒₙ (M⁻¹s⁻¹) and koff (s⁻¹), are determined under a continuous flow rate of 25 μl/minute. Rate constants are derived by making kinetic binding measurements at different antigen concentrations ranging from 10-200 nM. The equilibrium dissociation constant (M) of the reaction between antibodies and the target antigen is then calculated from the kinetic rate constants by the following formula: KD=koff/kₒₙ. Binding is recorded as a function of time and kinetic rate constants are calculated. In this assay, on-rates as fast as 10⁶ M⁻¹s⁻¹ and off-rates as slow as 10⁻⁶ s⁻¹ can be measured.

T1 sequence (P01375 77-233 limits assumed): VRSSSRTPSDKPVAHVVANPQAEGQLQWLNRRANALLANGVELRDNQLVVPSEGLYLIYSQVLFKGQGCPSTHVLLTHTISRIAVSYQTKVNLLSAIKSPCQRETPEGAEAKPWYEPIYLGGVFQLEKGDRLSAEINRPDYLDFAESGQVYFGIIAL

Row | Binder | TNF-α neutralization assay IC50 (nM), L929 cells [1] [nM] | Kd [2] [pM] | koff [2] [s⁻¹] | kon [2] [M⁻¹ s⁻¹]
1 | AB248 (antibody, V domains shown, also called hMAK195VH.1b / hMAK195VL.1) VH: EVQLQESGPGLVKPSETLSLTCTVSGFSLSDYGVNWIRQPPGKGLEWIGMIWGDGSTDYDSTLKSRVTISKDTSKNQFSLKLSSVTAADTAVYYCAREWHHGPVAYWGQGTLVTVSS VL: DIQMTQSPSSLSASVGDRVTITCKASQAVSSAVAWYQQKPGKAPKLLIYWASTRHTGVPSRFSGSGSGTDFTLTISSLQPEDFATYYCQQHYSTPFTFGQGTKLEIK | 0.213 | 174 | 0.000316 | 1.82e+06
2 | AB240 (antibody, V domains shown, also called hMAK195VH.1 / hMAK195VL.1) VH: EVQLQESGPGLVKPSETLSLTCTVSGGSISDYGVNWIRQPPGKGLEWIGMIWGDGSTDYDSTLKSRVTISVDTSKNQFSLKLSSVTAADTAVYYCAREWHHGPVAYWGQGTLVTVSS VL: DIQMTQSPSSLSASVGDRVTITCKASQAVSSAVAWYQQKPGKAPKLLIYWASTRHTGVPSRFSGSGSGTDFTLTISSLQPEDFATYYCQQHYSTPFTFGQGTKLEIK | 14.2 | 1400 | 0.00228 | 1.64e+06
3 | AB241 (antibody, V domains shown, also called hMAK195VH.1 / hMAK195VL.1a) VH: EVQLQESGPGLVKPSETLSLTCTVSGGSISDYGVNWIRQPPGKGLEWIGMIWGDGSTDYDSTLKSRVTISVDTSKNQFSLKLSSVTAADTAVYYCAREWHHGPVAYWGQGTLVTVSS VL: DIQMTQSPSSLSASVGDRVTITCKASQAVSSAVAWYQQKPGKSPKLLIYWASTRHTGVPSRFSGSGSGTDFTLTISSLQPEDFATYYCQQHYSTPFTFGQGTKLEIK | 5.33 | 573 | 0.0013 | 2.27e+06
4 | AB244 (antibody, V domains shown, also called hMAK195VH.1a / hMAK195VL.1) VH: EVQLQESGPGLVKPSETLSLTCTVSGFSLSDYGVNWVRQPPGKGLEWLGMIWGDGSTDYDSTLKSRLTISKDNSKSQISLKLSSVTAADTAVYYCAREWHHGPVAYWGQGTLVTVSS VL: DIQMTQSPSSLSASVGDRVTITCKASQAVSSAVAWYQQKPGKAPKLLIYWASTRHTGVPSRFSGSGSGTDFTLTISSLQPEDFATYYCQQHYSTPFTFGQGTKLEIK | 0.155 | 89.1 | 0.000335 | 3.8e+06
5 | AB245 (antibody, V domains shown, also called hMAK195VH.1a / hMAK195VL.1a) VH: EVQLQESGPGLVKPSETLSLTCTVSGFSLSDYGVNWVRQPPGKGLEWLGMIWGDGSTDYDSTLKSRLTISKDNSKSQISLKLSSVTAADTAVYYCAREWHHGPVAYWGQGTLVTVSS VL: DIQMTQSPSSLSASVGDRVTITCKASQAVSSAVAWYQQKPGKSPKLLIYWASTRHTGVPSRFSGSGSGTDFTLTISSLQPEDFATYYCQQHYSTPFTFGQGTKLEIK | 0.072 | 99.4 | 0.00033 | 3.32e+06
6 | AB249 (antibody, V domains shown, also called A3249; hMAK195VH.1b / hMAK195VL.1a) VH: EVQLQESGPGLVKPSETLSLTCTVSGFSLSDYGVNWIRQPPGKGLEWIGMIWGDGSTDYDSTLKSRVTISKDTSKNQFSLKLSSVTAADTAVYYCAREWHHGPVAYWGQGTLVTVSS VL: DIQMTQSPSSLSASVGDRVTITCKASQAVSSAVAWYQQKPGKSPKLLIYWASTRHTGVPSRFSGSGSGTDFTLTISSLQPEDFATYYCQQHYSTPFTFGQGTKLEIK | 0.245 | 156 | 0.000315 | 2.04e+06
7 | AB250 (antibody, V domains shown, also called hMAK195VH.1b / hMAK195VL.2) VH: EVQLQESGPGLVKPSETLSLTCTVSGFSLSDYGVNWIRQPPGKGLEWIGMIWGDGSTDYDSTLKSRVTISKDTSKNQFSLKLSSVTAADTAVYYCAREWHHGPVAYWGQGTLVTVSS VL: EIVMTQSPATLSLSPGERATLSCKASQAVSSAVAWYQQKPGQAPRLLIYWASTRHTGIPARFSGSGSGTDFTLTISSLQPEDFAVYYCQQHYSTPFTFGQGTKLEIK | 0.301 | 179 | 0.000356 | 2e+06
8 | AB242 (antibody, V domains shown, also called hMAK195VH.1 / hMAK195VL.2) VH: EVQLQESGPGLVKPSETLSLTCTVSGGSISDYGVNWIRQPPGKGLEWIGMIWGDGSTDYDSTLKSRVTISVDTSKNQFSLKLSSVTAADTAVYYCAREWHHGPVAYWGQGTLVTVSS VL: EIVMTQSPATLSLSPGERATLSCKASQAVSSAVAWYQQKPGQAPRLLIYWASTRHTGIPARFSGSGSGTDFTLTISSLQPEDFAVYYCQQHYSTPFTFGQGTKLEIK | 25.1 | 796 | 0.00142 | 1.79e+06
9 | AB243 (antibody, V domains shown, also called hMAK195VH.1 / hMAK195VL.2a) VH: EVQLQESGPGLVKPSETLSLTCTVSGGSISDYGVNWIRQPPGKGLEWIGMIWGDGSTDYDSTLKSRVTISVDTSKNQFSLKLSSVTAADTAVYYCAREWHHGPVAYWGQGTLVTVSS VL: EIVMTQSPATLSLSPGERATLSCKASQAVSSAVAWYQQKPGQSPRLLIYWASTRHTGVPARFSGSGSGTDFTLTISSLQPEDFAVYYCQQHYSTPFTFGQGTKLEIK | 50.7 | 1620 | 0.0027 | 1.72e+06
10 | AB246 (antibody, V domains shown, also called hMAK195VH.1a / hMAK195VL.2) VH: EVQLQESGPGLVKPSETLSLTCTVSGFSLSDYGVNWVRQPPGKGLEWLGMIWGDGSTDYDSTLKSRLTISKDNSKSQISLKLSSVTAADTAVYYCAREWHHGPVAYWGQGTLVTVSS VL: EIVMTQSPATLSLSPGERATLSCKASQAVSSAVAWYQQKPGQAPRLLIYWASTRHTGIPARFSGSGSGTDFTLTISSLQPEDFAVYYCQQHYSTPFTFGQGTKLEIK | 0.099 | 45.8 | 0.000119 | 2.61e+06
11 | AB247 (antibody, V domains shown, also called hMAK195VH.1a / hMAK195VL.2a) VH: EVQLQESGPGLVKPSETLSLTCTVSGFSLSDYGVNWVRQPPGKGLEWLGMIWGDGSTDYDSTLKSRLTISKDNSKSQISLKLSSVTAADTAVYYCAREWHHGPVAYWGQGTLVTVSS VL: EIVMTQSPATLSLSPGERATLSCKASQAVSSAVAWYQQKPGQSPRLLIYWASTRHTGVPARFSGSGSGTDFTLTISSLQPEDFAVYYCQQHYSTPFTFGQGTKLEIK | 0.186 | 99.6 | 0.00026 | 2.62e+06
12 | AB251 (antibody, V domains shown, also called hMAK195VH.1b / hMAK195VL.2a) VH: EVQLQESGPGLVKPSETLSLTCTVSGFSLSDYGVNWIRQPPGKGLEWIGMIWGDGSTDYDSTLKSRVTISKDTSKNQFSLKLSSVTAADTAVYYCAREWHHGPVAYWGQGTLVTVSS VL: EIVMTQSPATLSLSPGERATLSCKASQAVSSAVAWYQQKPGQSPRLLIYWASTRHTGVPARFSGSGSGTDFTLTISSLQPEDFAVYYCQQHYSTPFTFGQGTKLEIK | 0.35 | 250 | 0.000425 | 1.71e+06
13 | AB260 (antibody, V domains shown, also called hMAK195VH.2b / hMAK195VL.1) VH: EVQLVESGGGLVQPGGSLRLSCAASGFTLSDYGVNWVRQAPGKGLEWVSMIWGDGSTDYDSTLKSRFTISKDNSKNTLYLQMNSLRAEDTAVYYCAREWHHGPVAYWGQGTLVTVSS VL: DIQMTQSPSSLSASVGDRVTITCKASQAVSSAVAWYQQKPGKAPKLLIYWASTRHTGVPSRFSGSGSGTDFTLTISSLQPEDFATYYCQQHYSTPFTFGQGTKLEIK | 0.093 | 101 | 0.00023 | 2.27e+06
14 | AB252 (antibody, V domains shown, also called hMAK195VH.2 / hMAK195VL.1) VH: EVQLVESGGGLVQPGGSLRLSCAASGFTFSDYGVNWVRQAPGKGLEWVSMIWGDGSTDYDSTLKSRFTISRDNSKNTLYLQMNSLRAEDTAVYYCAREWHHGPVAYWGQGTLVTVSS VL: DIQMTQSPSSLSASVGDRVTITCKASQAVSSAVAWYQQKPGKAPKLLIYWASTRHTGVPSRFSGSGSGTDFTLTISSLQPEDFATYYCQQHYSTPFTFGQGTKLEIK | 0.222 | 86.6 | 0.000252 | 2.92e+06
15 | AB253 (antibody, V domains shown, also called hMAK195VH.2 / hMAK195VL.1a) VH: EVQLVESGGGLVQPGGSLRLSCAASGFTFSDYGVNWVRQAPGKGLEWVSMIWGDGSTDYDSTLKSRFTISRDNSKNTLYLQMNSLRAEDTAVYYCAREWHHGPVAYWGQGTLVTVSS VL: DIQMTQSPSSLSASVGDRVTITCKASQAVSSAVAWYQQKPGKSPKLLIYWASTRHTGVPSRFSGSGSGTDFTLTISSLQPEDFATYYCQQHYSTPFTFGQGTKLEIK | 0.279 | 73.3 | 0.000221 | 3.02e+06
